Measured values published in US20250043302A1, “MUTATED HYDROXYPHENYLPYRUVATE DIOXYGENASE POLYPEPTIDE, AND CODING GENE AND USE THEREOF” (BEIJING DABEINONG BIOTECHNOLOGY CO., LTD., priority 2021, published 2025).
Positions count from the first letter of the chain named. Numbers in names are those of the source.

B1: MsHPPDm-F372A-F383W-02: nucleotide sequence encoding Medicago sativa HPPD with F372A+F383W; vector DBN11737 (nucleic acid)
DNA: ATGGCTATTGAAACCGAAACACAAACTCAGACTGGATTTAAACTGGTAGGGTTCAAGAATTTCGTTAGGGCTAATCCCAAGTCTGATCGTTTTAAGGTCAAGAGGTTCCACCACGTGGAGTTCTGGTGCACTGATGCAACCAACACGGCGCGGCGTTTTTCACATGGTCTTGGAATGCCTATTGTTGCAAAATCCGACCTCTCCACGGGGAACCAAACACACGCCTCTTACCTGCTACGGAGTGGTGACTTGAACTTCCTCTTCAGCGCCGCCTACTCACCCTCCATATCGTTGTCTTCACCATCCTCGACCGCAGCAATTCCTACATTTTCTGCGAGCAACTGCTTCTCTTTCTCTGCCAGTCATGGCCTCGCCGTCAGAGCAGTGGCCGTTGAAGTAGAGGATGCTGAACTTGCTTTTACAACTTCAGTGAATAATGGAGCAATACCGAGCAGTCCGCCGGTCATACTTGAGAATCATGTGAAGCTAGCGGAGGTGAGGCTTTATGGGGACGTCGTTTTAAGATATGTCAGCTACAATGATCCAAACCCCAATCAAAATCCAAATTTGTTGTTCCTTCCTGGCTTCGAGCGTGTTAGCGATGAATCTTCAAACTCTTCACTGGATTTTGGAATCAGACGGTTGGATCATGCTGTTGGAAATGTTCCTGAACTCTCGAGCGCTGTGAAATATGTGAAGGACTTCACCGGTTTTCATGAATTTGCTGAGTTTACTGCAGAAGATGTGGGTACATCAGAGAGTGGCTTGAATTCCGTGGTGCTCGCCAACAACGAGGAGACTGTACTCTTACCAATGAATGAGCCAGTCTATGGCACCAAGCGTAAATCTCAAATTGAGACATATTTGGAGCACAATGAAGGAGCTGGACTTCAGCATCTCGCGCTGAAGAGTGAGGACATCTTCCGCACCCTACGGGAGATGAGGAAAAGAAGTGGTGTTGGTGGGTTTGAATTCATGCCATCACCTCCTGTCACCTACTACAGGAACCTGAAGAACAGAGTTGGTGATGTACTTTCGGACGAGCAGATAAAGGAATGTGAAGAGTTGGGGATTTTGGTTGATAGAGATGATCAAGGAACACTCCTGCAGATTGCCACAAAACCAATTGGCGACCGCCCCACTATCTGGATAGAGATCATCCAGAGGGTGGGGTGCATGCTCAAAGACGAGGAAGGGAAGGAGTACCAGAAGGGCGGCTGTGGTGGTTTTGGGAAAGGAAACTTTTCTGAGTTATTCAAATCAATTGAAGAGTATGAGAAGACGCTTGAAACGCGTCGCACTGCTTGA
modifications: MsHPPDm-F372A-F383W-02 Nucleotide Sequence
notes: vector DBN11737
B2: MsHPPDm-F372A-02: nucleotide sequence encoding Medicago sativa HPPD with F372A; vector DBN11735 (nucleic acid)
DNA: B1 DNA with G1148T, G1149C
modifications: MsHPPDm-F372A-02 Nucleotide Sequence
notes: vector DBN11735
B3: MsHPPDm-F383W-02: nucleotide sequence encoding Medicago sativa HPPD with F383W; vector DBN11736 (nucleic acid)
DNA: B1 DNA with G1114T, C1115T, C1116T
modifications: MsHPPDm-F383W-02 Nucleotide Sequence
notes: vector DBN11736

Test system: Arabidopsis thaliana T1 plants
Assay: Topramezone tolerance of transgenic Arabidopsis thaliana T1 plants (spray, bleached leaf area grade, damage score)
Type: in vivo
Details: number of plants; topramezone 25 g ai/ha (1×), 7 DAT; Table 4
In short: (§1)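 Read-out: per-plant damage grade 0–3 from proportion of bleached leaf area at 7 DAT (1 <50%, 2 >50%, 3 100%). Plants were T1 transformants, glufosinate-selected, plus wild-type CK, sprayed 18 days post-sowing. Rates: topramezone 25–200, isoxaflutole 35–280, mesotrione 52.5–420 g ai/ha.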

In order of falling “Classification and statistics of the grade of pesticide damage: Grade 0” value:
1. B1  6
2. B2  5
3. B3  0

In order of falling “Classification and statistics of the grade of pesticide damage: Grade 1” value:
1. B1  9
2. B2  7
3. B3  0

In order of rising “Classification and statistics of the grade of pesticide damage: Grade 2” value:
1. B1  1
2. B2  4
3. B3  4

In order of falling “Classification and statistics of the grade of pesticide damage: Grade 3” value:
1. B3  12
2. B1  0
3. B2  0

Same assay, conditions: number of plants; topramezone 100 g ai/ha (4×), 7 DAT; Table 4

In order of falling “Classification and statistics of the grade of pesticide damage: Grade 0” value:
1. B1  0
2. B2  0
3. B3  0

In order of falling “Classification and statistics of the grade of pesticide damage: Grade 1” value:
1. B1  8
2. B2  4
3. B3  0

In order of falling “Classification and statistics of the grade of pesticide damage: Grade 2” value:
1. B2  9
2. B1  6
3. B3  0

In order of falling “Classification and statistics of the grade of pesticide damage: Grade 3” value:
1. B3  16
2. B2  3
3. B1  2

Same assay, conditions: pesticide damage score 0-100; topramezone 25 g ai/ha (1×), 7 DAT; Table 4

In order of rising Scores:
1. B1  23
2. B2  31
3. B3  92

Same assay, conditions: pesticide damage score 0-100; topramezone 100 g ai/ha (4×), 7 DAT; Table 4

In order of rising Scores:
1. B1  54
2. B2  65
3. B3  100

Same assay, conditions: topramezone 25 g ai/ha (1×), 7 DAT; Table 4

B1 was tested, and the Resistance evaluation was “moderately”.
With B2 the Resistance evaluation was “moderately”.
For B3, the Resistance evaluation was “non-resistant (non-resistant plants (scores 68-100))”.

Same assay, conditions: topramezone 100 g ai/ha (4×), 7 DAT; Table 4

For B1, the Resistance evaluation was “poorly”.
For B2, the Resistance evaluation was “poorly”.
B3 was tested, and the Resistance evaluation was “non-resistant (non-resistant plants (scores 68-100))”.

Test system: Arabidopsis thaliana T1 plants
Assay: Isoxaflutole tolerance of transgenic Arabidopsis thaliana T1 plants (spray, bleached leaf area grade, damage score)
Type: in vivo
Parameters: Scores (pesticide damage): scale not given here
Details: isoxaflutole 35 g ai/ha (0.5x field concentration), spray, Arabidopsis thaliana T1 plants
In short: as §1

B1 was tested, and the Resistance evaluation was “Moderately”.
For B2, the Resistance evaluation was “Poorly”.
In the case of B3, the Resistance evaluation is reported as “Non-resistant”.

In order of rising “Scores (pesticide damage)” value:
1. B1  27
2. B2  54
3. B3  88

Same assay, conditions: isoxaflutole 35 g ai/ha (0.5x field concentration), spray, Arabidopsis thaliana T1 plants, 16 plants

In order of rising “Classification and statistics of the grade of pesticide damage: Grade 0 (number of plants)” value:
1. B2  0
2. B3  0
3. B1  5

In order of falling “Classification and statistics of the grade of pesticide damage: Grade 1 (number of plants)” value:
1. B1  9
2. B2  6
3. B3  0

In order of rising “Classification and statistics of the grade of pesticide damage: Grade 2 (number of plants)” value:
1. B1  2
2. B3  6
3. B2  10

In order of rising “Classification and statistics of the grade of pesticide damage: Grade 3 (number of plants)” value:
1. B1  0
2. B2  0
3. B3  10

Same assay, conditions: isoxaflutole 70 g ai/ha (1x field concentration), spray, Arabidopsis thaliana T1 plants

With B1 the Resistance evaluation was “Moderately”.
B2 was tested, and the Resistance evaluation was “Non-resistant”.
With B3 the Resistance evaluation was “Non-resistant”.

In order of rising “Scores (pesticide damage)” value:
1. B1  33
2. B2  100
3. B3  100

Same assay, conditions: isoxaflutole 70 g ai/ha (1x field concentration), spray, Arabidopsis thaliana T1 plants, 16 plants

In order of falling “Classification and statistics of the grade of pesticide damage: Grade 0 (number of plants)” value:
1. B1  2
2. B2  0
3. B3  0

In order of rising “Classification and statistics of the grade of pesticide damage: Grade 1 (number of plants)” value:
1. B2  0
2. B3  0
3. B1  12

In order of falling “Classification and statistics of the grade of pesticide damage: Grade 2 (number of plants)” value:
1. B1  2
2. B2  0
3. B3  0

In order of falling “Classification and statistics of the grade of pesticide damage: Grade 3 (number of plants)” value:
1. B2  16
2. B3  16
3. B1  0

Test system: Arabidopsis thaliana T1 plants
Assay: Mesotrione tolerance of transgenic Arabidopsis thaliana T1 plants (spray, bleached leaf area grade, damage score)
Type: in vivo
Parameters: Scores: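 damage score 0-100 computed as Σ(N×S)/(T×M)×100 over grades 0-3 with higher meaning more damage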
Details: mesotrione 52.5 g ai/ha; Arabidopsis thaliana T1 plants
In short: as §1

With B1 the Resistance evaluation was “Moderately”.
For B2, the Resistance evaluation was “Poorly resistant”.
B3 was tested, and the Resistance evaluation was “Non-resistant”.

In order of falling Scores:
1. B3  100
2. B2  52
3. B1  33

Same assay, conditions: mesotrione 52.5 g ai/ha; Arabidopsis thaliana T1 plants; 16 plants

In order of falling “Grade 0 (classification and statistics of the grade of pesticide damage; number of plants)” value:
1. B1  3
2. B2  0
3. B3  0

In order of rising “Grade 1 (classification and statistics of the grade of pesticide damage; number of plants)” value:
1. B3  0
2. B2  9
3. B1  10

In order of rising “Grade 2 (classification and statistics of the grade of pesticide damage; number of plants)” value:
1. B3  0
2. B1  3
3. B2  5

In order of rising “Grade 3 (classification and statistics of the grade of pesticide damage; number of plants)” value:
1. B1  0
2. B2  2
3. B3  16

Same assay, conditions: mesotrione 105 g ai/ha; Arabidopsis thaliana T1 plants

For B1, the Resistance evaluation was “Non-resistant”.
In the case of B2, the Resistance evaluation is reported as “Non-resistant”.
For B3, the Resistance evaluation was “Non-resistant”.

In order of falling Scores:
1. B2  100
2. B3  100
3. B1  79

Same assay, conditions: mesotrione 105 g ai/ha; Arabidopsis thaliana T1 plants; 16 plants

In order of falling “Grade 0 (classification and statistics of the grade of pesticide damage; number of plants)” value:
1. B1  0
2. B2  0
3. B3  0

In order of rising “Grade 1 (classification and statistics of the grade of pesticide damage; number of plants)” value:
1. B1  0
2. B2  0
3. B3  0

In order of falling “Grade 2 (classification and statistics of the grade of pesticide damage; number of plants)” value:
1. B1  10
2. B2  0
3. B3  0

In order of falling “Grade 3 (classification and statistics of the grade of pesticide damage; number of plants)” value:
1. B2  16
2. B3  16
3. B1  6
